In the supplement of paper PMC7877785:
± gives the uncertainty stated by the source.

Assay: self-splicing fitness, log relative to wild type (ln ratio); higher = more splicing; Tetrahymena group I intron in knt gene, E. coli kanamycin selection, DiMSum; sequences stand for … in CUCUCU…GGAGGGAAAAGUUAUCAGGCAUGCACCUGGUAGCUAGUCUUUAAACCAAUAGAUUGCAUCGGUUUAAAAGGCAAGACCGUCAAAUUGCGGGAAAGGGGUCAACAGCCGUUCAGUACCAAGUCUCAGGGGAAACUUUGAGAUGGCCUUGCAAAGGGUAUGGUAAUAAGCUGACGGACAUGGUCCUAACCACGCAGCCAAGUCCUAAGUCAACAGAUCUUCUGUUGAUAUGGAUGCAGUUCACAGACUAAAUGUCGGUCGGGGAAGAUGUAUUCUUCUCAUAAGAUAUAGUCGGACCUCUCCUUAAUGGGAGCUAGCGGAUGAAGUGAUGCAACACUGGAGCCGCUGGGAACUAAUUUGUAUGCGAAAGUAUAUUGAUUAGUUUUGGAGUACUCGUGGUCG
In short: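 Pooled colonies went to amplicon sequencing on an Illumina HiSeq 2500 after six replicate transformations. The plates were LB agar with 100 μg/mL carbenicillin, 50 μM IPTG and 0.2% rhamnose, with or without 25 μg/mL kanamycin, incubated overnight at 37°C or 30°C. The E. coli BL21(DE3) library had all eight P1ex-region intron nucleotides randomised, the intron placed in the knt kanamycin-resistance gene on pET-22b(+). DiMSum fitness is the error-weighted combination of replicate fold changes, kanamycin against none, normalised to wild type.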

| Sequence | self-splicing fitness (ln) (30 °C) | self-splicing fitness (ln) (37 °C) |
| --- | --- | --- |
| UUACAGCAAUAUUACGAAGG | -3.54 ± 0.31 | -1.3 ± 0.23 |
| UUACAGCAAUAUUACGACGC | 0.421 ± 0.26 | -1.47 ± 0.36 |
| UUACAGCAAUAUUACGACUA | 0.0835 ± 0.1 | 0.256 ± 0.12 |
| UUACAGCAAUAUUACGACUG | -1.26 ± 0.08 | -1.81 ± 0.12 |
| UUACAGCAAUAUUACGAGAG | -1.48 ± 0.11 | -2.4 ± 0.15 |
| UUACAGCAAUAUUACGAGUU | -4.21 ± 0.21 | -2.18 ± 0.14 |
| UUACAGCAAUAUUACGAUCA | -0.398 ± 0.13 | -0.133 ± 0.17 |
| UUACAGCAAUAUUACGCAGA | -1.84 ± 0.14 | -0.823 ± 0.12 |
| UUACAGCAAUAUUACGCUCG | 0.107 ± 0.086 | 0.283 ± 0.11 |
| UUACAGCAAUAUUACGGCUC | -1.76 ± 0.16 | -0.974 ± 0.16 |
| UUACAGCAAUAUUACGGGAA | -1.78 ± 0.086 | -0.461 ± 0.084 |
| UUACAGCAAUAUUACGGGAC | -4.47 ± 0.33 | -2.07 ± 0.25 |
| UUACAGCAAUAUUACGGUCG | 0.503 ± 0.065 | 0.571 ± 0.087 |
| UUACAGCAAUAUUACGGUGC | -3.23 ± 0.21 | -1.92 ± 0.17 |
| UUACAGCAAUAUUACGUAGC | -3.65 ± 0.3 | -2.92 ± 0.27 |
| UUACAGCAAUAUUACGUGAG | -0.626 ± 0.055 | 0.12 ± 0.092 |
| UUACAGCAAUAUUACGUGCA | -1.27 ± 0.055 | -0.148 ± 0.063 |
| UUACAGCAAUAUUACGUGGG | -2.85 ± 0.11 | -2.43 ± 0.13 |
| UUACAGCAAUAUUACGUGUG | -1.72 ± 0.063 | 0.0664 ± 0.077 |
| UUACAGCAAUAUUACGUUUG | -1.54 ± 0.074 | -1.14 ± 0.094 |
| UUAGAGCAAUAUUACGAUAC | -2.36 ± 0.36 |  |
| UUAGAGCAAUAUUACGAUUG | -1.95 ± 0.11 | -0.556 ± 0.14 |
| UUAGAGCAAUAUUACGCAAG | -1.18 ± 0.14 | -0.488 ± 0.22 |
| UUAGAGCAAUAUUACGCACG | -0.444 ± 0.17 | -0.183 ± 0.18 |
| UUAGAGCAAUAUUACGCUCG | -1.98 ± 0.23 |  |
| UUAGAGCAAUAUUACGCUUC | -2.81 ± 0.32 |  |
| UUAGAGCAAUAUUACGGCCC | -3.84 ± 0.36 | -1.52 ± 0.32 |

| Sequence | self-splicing fitness (ln) (30 °C) | self-splicing fitness (ln) (37 °C) |
| --- | --- | --- |
| UUAGAGCAAUAUUACGGUCC | -2.67 ± 0.42 |  |
| UUAGAGCAAUAUUACGGUGA | -0.868 ± 0.067 | -0.176 ± 0.08 |
| UUAGAGCAAUAUUACGGUUG | -1.98 ± 0.15 | -1.16 ± 0.15 |
| UUAGAGCAAUAUUACGUAGA | -2.18 ± 0.17 | -1.41 ± 0.19 |
| UUAGAGCAAUAUUACGUCGG | -1.11 ± 0.12 | -0.455 ± 0.14 |
| UUAUAGCAAUAUUACGAAAA | -1.95 ± 0.39 | -1.31 ± 0.28 |
| UUAUAGCAAUAUUACGAGAU | -3.27 ± 0.31 | -3.38 ± 0.39 |
| UUAUAGCAAUAUUACGAGUA | -1.68 ± 0.38 | -1.09 ± 0.33 |
| UUAUAGCAAUAUUACGAUCG | -0.934 ± 0.12 | -0.581 ± 0.14 |
| UUAUAGCAAUAUUACGCAAU | -2.86 ± 0.3 | -0.556 ± 0.23 |
| UUAUAGCAAUAUUACGCAUU | -3.19 ± 0.23 | -2.72 ± 0.2 |
| UUAUAGCAAUAUUACGCCCA | -1.57 ± 0.22 | -0.787 ± 0.26 |
| UUAUAGCAAUAUUACGCCUA | -1.55 ± 0.15 | 0.273 ± 0.2 |
| UUAUAGCAAUAUUACGCGCA | -1.06 ± 0.19 | -0.728 ± 0.2 |
| UUAUAGCAAUAUUACGCGUA | -0.829 ± 0.14 | -1.17 ± 0.14 |
| UUAUAGCAAUAUUACGGAAC | -3.09 ± 0.36 | -1.71 ± 0.44 |
| UUAUAGCAAUAUUACGGAGA | -2.04 ± 0.27 | -1.89 ± 0.32 |
| UUAUAGCAAUAUUACGGCCA | -1.18 ± 0.31 | -0.579 ± 0.33 |
| UUAUAGCAAUAUUACGGCUA | -0.836 ± 0.15 | -0.316 ± 0.14 |
| UUAUAGCAAUAUUACGGCUC | -2.3 ± 0.26 | -0.637 ± 0.26 |
| UUAUAGCAAUAUUACGGGGC | -2.88 ± 0.34 |  |
| UUAUAGCAAUAUUACGUACC | -3.97 ± 0.31 | -3.01 ± 0.3 |
| UUAUAGCAAUAUUACGUAUC | -3.79 ± 0.31 | -3.04 ± 0.32 |
| UUAUAGCAAUAUUACGUAUU |  | -2.08 ± 0.25 |
| UUAUAGCAAUAUUACGUCAU |  | -2.98 ± 0.37 |
| UUAUAGCAAUAUUACGUCUU | -3.35 ± 0.3 | -0.948 ± 0.17 |
| UUAUAGCAAUAUUACGUGCG | -1.06 ± 0.15 | -0.395 ± 0.17 |

| Sequence | self-splicing fitness (ln) (30 °C) | self-splicing fitness (ln) (37 °C) |
| --- | --- | --- |
| UUAUAGCAAUAUUACGUGCU | -2.75 ± 0.16 | -1.91 ± 0.14 |
| UUAUAGCAAUAUUACGUUCA | -0.931 ± 0.15 | 0.00672 ± 0.15 |
| UUCAAGCAAUAUUACGAAUA | -2.07 ± 0.18 | -0.837 ± 0.12 |
| UUCAAGCAAUAUUACGACGC | -1.27 ± 0.19 | -1.14 ± 0.26 |
| UUCAAGCAAUAUUACGAGAA | -1.84 ± 0.3 | -1.61 ± 0.37 |
| UUCAAGCAAUAUUACGAGGC | -1.97 ± 0.21 | -1.76 ± 0.23 |
| UUCAAGCAAUAUUACGAGUU | -2.6 ± 0.12 | -0.389 ± 0.099 |
| UUCAAGCAAUAUUACGCACC |  | -1.68 ± 0.49 |
| UUCAAGCAAUAUUACGGAAU |  | -2.57 ± 0.23 |
| UUCAAGCAAUAUUACGGACU | -2.76 ± 0.17 | -0.504 ± 0.13 |
| UUCAAGCAAUAUUACGGUUU | -3.08 ± 0.21 | -1.84 ± 0.17 |
| UUCAAGCAAUAUUACGUAAG | -1.89 ± 0.074 | -0.866 ± 0.077 |
| UUCAAGCAAUAUUACGUAGA | -1.5 ± 0.094 | -0.928 ± 0.14 |
| UUCAAGCAAUAUUACGUAUC | -4.16 ± 0.24 | -1.85 ± 0.16 |
| UUCAAGCAAUAUUACGUCCG | -1.33 ± 0.095 | -0.121 ± 0.14 |
| UUCAAGCAAUAUUACGUUCA | -0.938 ± 0.077 | -0.12 ± 0.077 |
| UUCCAGCAAUAUUACGAAUG | -3.59 ± 0.19 | -1.75 ± 0.15 |
| UUCCAGCAAUAUUACGAAUU | -3.98 ± 0.18 | -2.05 ± 0.14 |
| UUCCAGCAAUAUUACGACAG | -1.39 ± 0.17 | -0.449 ± 0.18 |
| UUCCAGCAAUAUUACGCGGG | -3.83 ± 0.29 | -2.69 ± 0.29 |
| UUCCAGCAAUAUUACGCUGC | -3.79 ± 0.28 | -2.09 ± 0.4 |
| UUCCAGCAAUAUUACGGAGA | -1.83 ± 0.084 | -0.628 ± 0.081 |
| UUCCAGCAAUAUUACGGCCC | -2.34 ± 0.38 |  |
| UUCCAGCAAUAUUACGGCUA | 0.12 ± 0.12 | -0.25 ± 0.1 |
| UUCCAGCAAUAUUACGGGAG | -3.38 ± 0.16 | -1.77 ± 0.14 |
